From patent US20120058906A1 (published 2012)
Substitutions are numbered along the chain they refer to. Each block holds one binder with its values, some of them ahead of it.

Key:
[1] = molecular target: T1, rHuman Erythropoietin R/Fc Chimera, CF (R&D Systems Cat#963-ER) (human, UniProt P19235 25-250); assay: MSD ECL titration, Fab 37.2 nM, blank 199;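 also: blank spot per well as comparator with Hit at signal to blank ratio of 4 or more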
T1 construct: Bought Fc chimera; also called EPO R/Fc; EPOR; Fc part of the bought chimera not given
T1 sequence: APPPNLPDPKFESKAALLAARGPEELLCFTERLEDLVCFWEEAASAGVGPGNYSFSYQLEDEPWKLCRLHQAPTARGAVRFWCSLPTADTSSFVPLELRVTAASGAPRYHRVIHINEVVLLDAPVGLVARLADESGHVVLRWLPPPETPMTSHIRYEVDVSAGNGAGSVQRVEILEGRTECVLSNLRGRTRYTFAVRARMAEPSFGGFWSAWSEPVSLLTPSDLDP

[2] = molecular target: T2, rHuman CD44/Fc Chimera, CF (R&D Systems Cat#3660-CD) (human, UniProt P16070 21-220); assay: MSD ECL titration, Fab 37.2 nM, blank 199;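 also: blank spot per well as comparator with Hit at signal to blank ratio of 4 or more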
T2 construct: Bought Fc chimera; Fc part of the bought chimera not given

[3] = molecular target: T3, rHuman ErbB2/Fc Chimera, CF (R&D Systems Cat#1129-ER) (human, UniProt P04626 23-652); assay: MSD ECL titration, Fab 37.2 nM, blank 199;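 also: blank spot per well as comparator with Hit at signal to blank ratio of 4 or more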
T3 construct: Bought Fc chimera; also called HER2/neu; Fc part of the bought chimera not given

[4] = molecular target: T4, rHuman EGF R/Fc Chimera, CF (R&D Systems Cat#344-ER) (human, UniProt P00533 25-645); assay: MSD ECL titration, Fab 37.2 nM, blank 199;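 also: blank spot per well as comparator with Hit at signal to blank ratio of 4 or more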
T4 construct: Bought Fc chimera; Fc part of the bought chimera not given

[5] = molecular target: T5, rHuman HGF R/c-MET/Fc Chimera, CF (R&D Systems Cat#358-MT/CF) (human, UniProt P08581 25-932); assay: ECL (MSD multi-spot), antigen on plate, Fab 5 nM
T5 construct: Bought Fc chimera; also called HGF R/Fc; not shown: Fc of the bought chimera

[6] = molecular target: T6, Recombinant Human DLL4 (R&D Systems Cat#1506-D4/CF) (human, UniProt Q9NR61 27-524); assay: ECL (MSD multi-spot), antigen on plate, Fab 5 nM
T6 construct: Bought recombinant protein; also called delta-like protein 4

[7] = molecular target: T7, rHuman Notch-1/Fc Chimera, CF (R&D Systems Cat#3647-TK) (human, UniProt P46531 19-526); assay: ECL (MSD multi-spot), antigen on plate, Fab 5 nM
T7 construct: Bought Fc chimera; not shown: Fc of the bought chimera

[8] = molecular target: T8, rHuman P-Cadherin/Fc Chimera, CF (R&D Systems Cat#861-PC) (human, UniProt P22223 108-654); assay: ECL (MSD multi-spot), antigen on plate, Fab 5 nM
T8 construct: Bought Fc chimera; also called CDH3; not shown: Fc of the bought chimera

[9] = molecular target: T9, rHuman ErbB2/Fc Chimera, CF (R&D Systems Cat#1129-ER) (human, UniProt P04626 23-652); assay: ECL (MSD multi-spot), antigen on plate, Fab 5 nM
T9 construct: Bought Fc chimera; also called HER2/neu; not shown: Fc of the bought chimera

[10] = molecular target: T10, rHuman IGF-1 sR (insulin-like growth factor-1 soluble receptor), CF (R&D Systems Cat#391-GR) (human, UniProt P08069 31-932); assay: ECL (MSD multi-spot), antigen on plate, Fab 5 nM
T10 construct: Bought soluble receptor; also called IGF-R1

[11] = molecular target: T11, Recombinant Human DLL4 (R&D Systems Cat#1506-D4/CF) (human, UniProt Q9NR61 27-524); assay: MSD ECL multi-spot plate, antigen immobilized; Fab 0.32 nM; blank spot 513;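 also: blank spot per well as comparator with Hit at signal to blank ratio of 4 or more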
T11 construct: Purchased recombinant protein; also called delta-like protein 4

[12] = molecular target: T12, rHuman IGF-1 sR (IGF-1 sR), CF (R&D Systems Cat#391-GR) (human, UniProt P08069 31-932); assay: as above
T12 construct: Purchased soluble receptor; also called insulin-like growth factor-1 soluble receptor; IGF-R1

[13] = molecular target: T13, rHuman P-Cadherin/Fc Chimera, CF (R&D Systems Cat#861-PC) (human, UniProt P22223 108-654); assay: as above
T13 construct: Purchased Fc chimera; not shown: Fc portion of the purchased chimera

[14] = molecular target: T14, rHuman EGF R/Fc Chimera, CF (R&D Systems Cat#344-ER) (human, UniProt P00533 25-645); assay: as above
T14 construct: Purchased Fc chimera; not shown: Fc portion of the purchased chimera

[15] = molecular target: T15, rHuman ErbB2/Fc Chimera, CF (R&D Systems Cat#1129-ER) (human, UniProt P04626 23-652); assay: as above
T15 construct: Purchased Fc chimera; also called HER2/neu; not shown: Fc portion of the purchased chimera

[16] = molecular target: T16, rHuman HGF R/c-MET/Fc Chimera, CF (R&D Systems Cat#358-MT/CF) (human, UniProt P08581 25-932); assay: as above
T16 construct: Purchased Fc chimera; also called HGF R/Fc; not shown: Fc portion of the purchased chimera

[17] = molecular target: T17, rHuman Notch-1/Fc Chimera, CF (R&D Systems Cat#3647-TK) (human, UniProt P46531 19-526); assay: as above
T17 construct: Purchased Fc chimera; not shown: Fc portion of the purchased chimera

[18] = molecular target: T18, rHuman Erythropoietin R/Fc Chimera, CF (R&D Systems Cat#963-ER) (human, UniProt P19235 25-250); assay: as above
T18 construct: Purchased Fc chimera; also called EPO R/Fc; Epo R; not shown: Fc portion of the purchased chimera
T18 sequence: T1 sequence

[19] = molecular target: T19, rHuman CD44/Fc Chimera, CF (R&D Systems Cat#3660-CD) (human, UniProt P16070 21-220); assay: as above
T19 construct: Purchased Fc chimera; not shown: Fc portion of the purchased chimera

ECL signal [1]: 315 | ECL signal [2]: 356 | ECL signal [3]: 384 | ECL signal [4]: 228
B1: Fab VH1-46_IGHD6-6*01_IGHJ1*01 & L6_IGKJ1*01 (Fab, V domains shown)
VH: QVQLVQSGAEVKKPGASVKVSCKASGYTFTSYYMHWVRQAPGQGLEWMGIINPSGGSTSYAQKFQGRVTMTRDTSTSTVYMELSSLRSEDTAVYYCAREEYSSSSAEYFQHWGQGTLVTVSS
VL: not shown
notes: Expressed in E. coli as Fab: heavy chain with CH1 plus Flag and His tags from Plasmid A, kappa light chain constant region from Plasmid C; also called Fab No. 1

ECL signal [5]: 3100 ECL signal | ECL signal [6]: 73400 ECL signal | ECL signal [7]: 3230 ECL signal | ECL signal [8]: 4160 ECL signal | ECL signal [9]: 2860 ECL signal | ECL signal [10]: 3030 ECL signal
B2: Fab VH1-46_IGHD6-6*01_IGHJ1*01_S102A_S103P_S104Y_H111Y & L6_IGKJ1*01 (Fab, V domains shown)
VH: B1 VH with S102A, S103P, S104Y, H111Y
VL: not shown
notes: Fab made in E. coli; The heavy chain also carries CH1 with Flag and His tags from Plasmid A, and the light chain carries kappa CL from Plasmid C

ECL signal [11]: 1210 ECL signal | ECL signal [12]: 1250 ECL signal | ECL signal [13]: 656 ECL signal | ECL signal [14]: 1220 ECL signal | ECL signal [15]: 1480 ECL signal | ECL signal [16]: 1290 ECL signal | ECL signal [17]: 983 ECL signal | ECL signal [18]: 851 ECL signal | ECL signal [19]: 877 ECL signal
B3: Fab VH5-51_IGHD5-18*01>3_IGHJ4*01_G100R & V3-4_IGLJ1*01 (Fab, V domains shown)
VH: EVQLVQSGAEVKKPGESLKISCKGSGYSFTSYWIGWVRQMPGKGLEWMGIIYPGDSDTRYSPSFQGQVTISADKSISTAYLQWSSLKASDTAMYYCARRRYSYGYDYFDYWGQGTLVTVSS
VL: QTVVTQEPSFSVSPGGTVTLTCGLSSGSVSTSYYPSWYQQTPGQAPRTLIYSTNTRSSGVPDRFSGSILGNKAALTITGAQADDESDYYCVLYMGSGISYVFGTGTKVTVL
notes: It was expressed as a Fab: CH1 with tags from Plasmid A and lambda CL from Plasmid E; also called Fab No. 23
